Results from the supplement of paper PMC7877785.
± gives the uncertainty stated by the source.

Assay: self-splicing fitness, log relative to wild type (ln ratio); higher = more splicing; Tetrahymena group I intron in knt gene, E. coli kanamycin selection, DiMSum; sequences stand for … in CUCUCU…GGAGGGAAAAGUUAUCAGGCAUGCACCUGGUAGCUAGUCUUUAAACCAAUAGAUUGCAUCGGUUUAAAAGGCAAGACCGUCAAAUUGCGGGAAAGGGGUCAACAGCCGUUCAGUACCAAGUCUCAGGGGAAACUUUGAGAUGGCCUUGCAAAGGGUAUGGUAAUAAGCUGACGGACAUGGUCCUAACCACGCAGCCAAGUCCUAAGUCAACAGAUCUUCUGUUGAUAUGGAUGCAGUUCACAGACUAAAUGUCGGUCGGGGAAGAUGUAUUCUUCUCAUAAGAUAUAGUCGGACCUCUCCUUAAUGGGAGCUAGCGGAUGAAGUGAUGCAACACUGGAGCCGCUGGGAACUAAUUUGUAUGCGAAAGUAUAUUGAUUAGUUUUGGAGUACUCGUGGUCG
Procedure, shortened: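 The eight P1ex-region nucleotides of an intron in the knt kanamycin-resistance gene on pET-22b(+) were all randomised and the library put into E. coli BL21(DE3). Six replicate transformations were grown overnight at 37°C or 30°C on LB agar with or without 25 μg/mL kanamycin, together with 100 μg/mL carbenicillin, 50 μM IPTG and 0.2% rhamnose. Colonies were pooled and amplicon-sequenced on an Illumina HiSeq 2500. Fitness from DiMSum is the error-weighted combination of wild-type-normalised replicate fold changes, kanamycin over none.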

Sequence: GGAUAGCAAUAUUACGUUUG
- self-splicing fitness (ln) (30 °C): -2.95 ± 0.2
- self-splicing fitness (ln) (37 °C): -1.87 ± 0.21

Sequence: ACGCAGCAAUAUUACGACCG
- self-splicing fitness (ln) (30 °C): -0.348 ± 0.15
- self-splicing fitness (ln) (37 °C): -0.0722 ± 0.19

Sequence: CCCUAGCAAUAUUACGGGGU
- self-splicing fitness (ln) (30 °C): -2.49 ± 0.092
- self-splicing fitness (ln) (37 °C): -2.91 ± 0.12

Sequence: AAAAAGCAAUAUUACGCCGU
- self-splicing fitness (ln) (30 °C): -0.957 ± 0.064
- self-splicing fitness (ln) (37 °C): -0.392 ± 0.072

Sequence: AUCUAGCAAUAUUACGGACC
- self-splicing fitness (ln) (30 °C): -0.962 ± 0.16
- self-splicing fitness (ln) (37 °C): -0.141 ± 0.23

Sequence: GAGAAGCAAUAUUACGUGAC
- self-splicing fitness (ln) (30 °C): -2.18 ± 0.12
- self-splicing fitness (ln) (37 °C): -1.29 ± 0.17

Sequence: AUAGAGCAAUAUUACGAGAU
- self-splicing fitness (ln) (30 °C): -0.944 ± 0.27
- self-splicing fitness (ln) (37 °C): -1.72 ± 0.4

Sequence: UAAAAGCAAUAUUACGAAAA
- self-splicing fitness (ln) (30 °C): -2.94 ± 0.2
- self-splicing fitness (ln) (37 °C): -1.71 ± 0.16

Sequence: UUUGAGCAAUAUUACGCGGA
- self-splicing fitness (ln) (30 °C): -3.43 ± 0.35
- self-splicing fitness (ln) (37 °C): -1.28 ± 0.17

Sequence: CAUAAGCAAUAUUACGCUGG
- self-splicing fitness (ln) (30 °C): -2.08 ± 0.18
- self-splicing fitness (ln) (37 °C): -2.03 ± 0.17

Sequence: UAUAAGCAAUAUUACGCGUU
- self-splicing fitness (ln) (30 °C): -2.67 ± 0.14
- self-splicing fitness (ln) (37 °C): -0.931 ± 0.12

Sequence: CAAAAGCAAUAUUACGCUCU
- self-splicing fitness (ln) (30 °C): -1.6 ± 0.12
- self-splicing fitness (ln) (37 °C): -1.63 ± 0.16

Sequence: AAGUAGCAAUAUUACGGACC
- self-splicing fitness (ln) (37 °C): -0.466 ± 0.37

Sequence: UGAUAGCAAUAUUACGCGGG
- self-splicing fitness (ln) (30 °C): -3.28 ± 0.31
- self-splicing fitness (ln) (37 °C): -1.7 ± 0.25

Sequence: GCCGAGCAAUAUUACGCGCU
- self-splicing fitness (ln) (30 °C): -1.78 ± 0.2
- self-splicing fitness (ln) (37 °C): -2.77 ± 0.34

Sequence: AUAGAGCAAUAUUACGGGCG
- self-splicing fitness (ln) (30 °C): -3 ± 0.22
- self-splicing fitness (ln) (37 °C): -2.13 ± 0.31

Sequence: AACCAGCAAUAUUACGUAGG
- self-splicing fitness (ln) (30 °C): -2.67 ± 0.089
- self-splicing fitness (ln) (37 °C): -1.79 ± 0.099

Sequence: UAUAAGCAAUAUUACGAUAC
- self-splicing fitness (ln) (37 °C): -2.39 ± 0.33

Sequence: ACAGAGCAAUAUUACGCUAU
- self-splicing fitness (ln) (30 °C): -3.38 ± 0.27
- self-splicing fitness (ln) (37 °C): -1.12 ± 0.19

Sequence: AAAAAGCAAUAUUACGUCGC
- self-splicing fitness (ln) (30 °C): -2.7 ± 0.26
- self-splicing fitness (ln) (37 °C): -1.34 ± 0.17

Sequence: GUUCAGCAAUAUUACGCAGG
- self-splicing fitness (ln) (30 °C): -1.35 ± 0.14
- self-splicing fitness (ln) (37 °C): -1.28 ± 0.17

Sequence: AUCCAGCAAUAUUACGCCUA
- self-splicing fitness (ln) (30 °C): -1.29 ± 0.19
- self-splicing fitness (ln) (37 °C): 0.121 ± 0.13

Sequence: GAUGAGCAAUAUUACGAUUG
- self-splicing fitness (ln) (30 °C): -4.96 ± 0.45
- self-splicing fitness (ln) (37 °C): -2.67 ± 0.22

Sequence: UACGAGCAAUAUUACGUGCU
- self-splicing fitness (ln) (30 °C): -3.9 ± 0.23
- self-splicing fitness (ln) (37 °C): -2.4 ± 0.19

Sequence: UGUCAGCAAUAUUACGAUAC
- self-splicing fitness (ln) (30 °C): -2.92 ± 0.24
- self-splicing fitness (ln) (37 °C): -2.41 ± 0.22

Sequence: CGCUAGCAAUAUUACGGUGU
- self-splicing fitness (ln) (30 °C): -3.54 ± 0.15
- self-splicing fitness (ln) (37 °C): -2.22 ± 0.21

Sequence: UGUGAGCAAUAUUACGACUA
- self-splicing fitness (ln) (30 °C): -0.569 ± 0.2
- self-splicing fitness (ln) (37 °C): -1.07 ± 0.19

Sequence: AGGGAGCAAUAUUACGGCCG
- self-splicing fitness (ln) (30 °C): -1.81 ± 0.16
- self-splicing fitness (ln) (37 °C): -1.96 ± 0.16

Sequence: AGUGAGCAAUAUUACGAAAU
- self-splicing fitness (ln) (37 °C): -2.07 ± 0.39

Sequence: ACGUAGCAAUAUUACGGUGG
- self-splicing fitness (ln) (30 °C): -5.08 ± 0.28
- self-splicing fitness (ln) (37 °C): -2.92 ± 0.16

Sequence: AACGAGCAAUAUUACGGCUA
- self-splicing fitness (ln) (30 °C): -1.23 ± 0.15
- self-splicing fitness (ln) (37 °C): -0.829 ± 0.18

Sequence: GCUGAGCAAUAUUACGAUGG
- self-splicing fitness (ln) (30 °C): -2.25 ± 0.17
- self-splicing fitness (ln) (37 °C): -0.805 ± 0.12

Sequence: AAGCAGCAAUAUUACGAGAA
- self-splicing fitness (ln) (37 °C): -1.29 ± 0.33

Sequence: AAACAGCAAUAUUACGCAUU
- self-splicing fitness (ln) (30 °C): -2.68 ± 0.094
- self-splicing fitness (ln) (37 °C): -1.08 ± 0.094

Sequence: AAUCAGCAAUAUUACGAGCC
- self-splicing fitness (ln) (30 °C): -2.39 ± 0.16
- self-splicing fitness (ln) (37 °C): -0.744 ± 0.19

Sequence: UCACAGCAAUAUUACGAGGU
- self-splicing fitness (ln) (30 °C): -4.27 ± 0.36
- self-splicing fitness (ln) (37 °C): -2.54 ± 0.22

Sequence: CAGGAGCAAUAUUACGGCAA
- self-splicing fitness (ln) (30 °C): -4.26 ± 0.32
- self-splicing fitness (ln) (37 °C): -2.84 ± 0.33

Sequence: CCCAAGCAAUAUUACGCCCC
- self-splicing fitness (ln) (37 °C): -2.52 ± 0.48

Sequence: ACGUAGCAAUAUUACGUAAU
- self-splicing fitness (ln) (30 °C): -2.35 ± 0.13
- self-splicing fitness (ln) (37 °C): -2.34 ± 0.15

Sequence: CAAAAGCAAUAUUACGUCUA
- self-splicing fitness (ln) (30 °C): -1.75 ± 0.097
- self-splicing fitness (ln) (37 °C): -0.725 ± 0.083

Sequence: GAUGAGCAAUAUUACGUAAU
- self-splicing fitness (ln) (30 °C): -2.8 ± 0.23
- self-splicing fitness (ln) (37 °C): -1.55 ± 0.28

Sequence: UACUAGCAAUAUUACGCUGA
- self-splicing fitness (ln) (30 °C): -2.48 ± 0.16
- self-splicing fitness (ln) (37 °C): -1.37 ± 0.15

Sequence: GAAUAGCAAUAUUACGGCAG
- self-splicing fitness (ln) (30 °C): -3.67 ± 0.39
- self-splicing fitness (ln) (37 °C): -1.93 ± 0.25

Sequence: UGUGAGCAAUAUUACGCUUU
- self-splicing fitness (ln) (30 °C): -3.5 ± 0.33
- self-splicing fitness (ln) (37 °C): -3.83 ± 0.33

Sequence: GCAGAGCAAUAUUACGUUGG
- self-splicing fitness (ln) (30 °C): -2.91 ± 0.18
- self-splicing fitness (ln) (37 °C): -1.09 ± 0.19

Sequence: ACAGAGCAAUAUUACGUAUA
- self-splicing fitness (ln) (30 °C): -3.37 ± 0.26
- self-splicing fitness (ln) (37 °C): -2.72 ± 0.31

Sequence: GAGGAGCAAUAUUACGGUGA
- self-splicing fitness (ln) (30 °C): -3.55 ± 0.37
- self-splicing fitness (ln) (37 °C): -1.49 ± 0.28

Sequence: CUGUAGCAAUAUUACGGUUG
- self-splicing fitness (ln) (30 °C): -0.904 ± 0.081
- self-splicing fitness (ln) (37 °C): -0.833 ± 0.087

Sequence: ACGCAGCAAUAUUACGACCU
- self-splicing fitness (ln) (30 °C): 0.0699 ± 0.061
- self-splicing fitness (ln) (37 °C): 0.401 ± 0.073
